Test [1] deals with T1, HLA-G1 on K562 cells (K562-HLA-G) (human).
T1 construct: also called cells expressing HLA-G
Put plainly: flow cytometry; IgG1 mAb on cells expressing HLA-G.

Test [2] has as its target T2, MHGW8 (B2m-3(G4S)-HLA-G1-G4S-Avi), soluble HLA-G1 extracellular domain (human, biotinylated (Avi tag) in the ligand blocking assay).
T2 construct: also called HLA-G (MHGW8); recombinant biotinylated HLA-G1 (MHGW8)
Briefly: competition, flow cytometry: antibody titrated against MHGW8-dextramer binding to ILT2 on HEK293T cells (competitor ILT2).

Test [3] concerns the target T2, MHGW8 (B2m-3(G4S)-HLA-G1-G4S-Avi), …. Briefly: competition, flow cytometry: antibody titrated against MHGW8-dextramer binding to ILT4 on HEK293T cells (competitor ILT4).
Test [4] has as its target T3, CD3 on human T cells (Jurkat cells, primary human T cells) (human, UniProt P07766 23-207).
T3 construct: whole, on cells; also called CD3 epsilon; T cell receptor complex
Put plainly: T cell binding (method not described).

Test [5] concerns the target T1, HLA-G1 on K562 cells (K562-HLA-G). Briefly: K562-HLA-G cell binding (method not described).

T3 sequence (P07766 23-207): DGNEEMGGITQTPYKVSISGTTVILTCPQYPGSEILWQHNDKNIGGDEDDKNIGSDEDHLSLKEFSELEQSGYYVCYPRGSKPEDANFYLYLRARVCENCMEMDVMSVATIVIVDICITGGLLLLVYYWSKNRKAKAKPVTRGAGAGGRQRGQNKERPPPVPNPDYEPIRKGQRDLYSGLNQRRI

B1: MHGB672 (antibody, human IgG1, kappa, V domains shown)
VH: QVQLQQSGPGLVKPSQTLSLTCAISGDSVSSNRAAWNWIRQTPSRGLEWLGRTYYRSEWYNDYAVSVKSRITINPDTSKNQFSLQLNSVTPEDTAVYYCARVRAAVPFDYWGQGTLVTVSS
VL: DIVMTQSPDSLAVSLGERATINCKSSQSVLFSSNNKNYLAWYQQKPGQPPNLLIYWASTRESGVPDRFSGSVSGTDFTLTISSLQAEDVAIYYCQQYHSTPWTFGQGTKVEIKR
notes: IgG1 mAb
Turning to B1, in test [1], the “Geomean fluorescence signal (maximum value for binding)” value (from here on “Geomean fluorescence signal”) was determined as 522000. Further, the concentration giving a half-maximal response (EC50) was 2.12 nM in test [2] and 1.61 nM in test [3].

B2: MHGB738 (GL optimized B688) (antibody, human IgG1, kappa, V domains shown)
VH: QVQLQQSGPGLVKPSQTLSLTCAISGDSVSSNRAAWNWIRQSPSRGLEWLGRTYYRSKWYNDYAVSVKSRITINPDTSKNQISLQLNSVTPEDTAVYYCARVRPGIPFDYWGQGTPVTVSS
VL: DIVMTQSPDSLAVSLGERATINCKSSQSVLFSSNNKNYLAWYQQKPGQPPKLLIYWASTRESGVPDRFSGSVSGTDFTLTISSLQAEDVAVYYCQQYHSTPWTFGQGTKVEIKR
notes: IgG1 mAb
For B2, the EC50 amounted to 0.73 nM in test [2] and 0.8 nM in test [3].

B3: HC3B258 (CD3B376-Fab-Fc x MHGB732-LH-scFv-Fc) (bispecific antibody, human IgG1, lambda, L234A L235A)
heavy: QVQLQQSGPRLVRPSQTLSLTCAISGDSVFNNNAAWSWIRQSPSRGLEWLGRTYYRSKWLYDYAVSVKSRITVNPDTSRNQFTLQLNSVTPEDTALYYCARGYSSSFDYWGQGTLVTVSSASTKGPSVFPLAPSSKSTSGGTAALGCLVKDYFPEPVTVSWNSGALTSGVHTFPAVLQSSGLYSLSSVVTVPSSSLGTQTYICNVNHKPSNTKVDKKVEPKSCDKTHTCPPCPAPEAAGGPSVFLFPPKPKDTLMISRTPEVTCVVVSVSHEDPEVKFNWYVDGVEVHNAKTKPREEQYNSTYRVVSVLTVLHQDWLNGKEYKCKVSNKALPAPIEKTISKAKGQPREPQVYVYPPSREEMTKNQVSLTCLVKGFYPSDIAVEWESNGQPENNYKTTPPVLDSDGSFALVSKLTVDKSRWQQGNVFSCSVMHEALHNHYTQKSLSLSPGK
light: QSALTQPASVSGSPGQSITISCTGTSSNIGTYKFVSWYQQHPDKAPKVLLYEVSKRPSGVSSRFSGSKSGNTASLTISGLQAEDQADYHCVSYAGSGTLLFGGGTKLTVLGQPKAAPSVTLFPPSSEELQANKATLVCLISDFYPGAVTVAWKADSSPVKAGVETTTPSKQSNNKYAASSYLSLTPEQWKSHRSYSCQVTHEGSTVEKTVAPTECS
scFv: DIVMTQSPDSLAVSLGERATINCKSSQSVLHSSNNKNYLTWFQQKPGQPPKLLIYWASTRESGVPDRFSGSGSGTDFTLTISSLQAEDVAVYYCHQYYSTPPTFGQGTKVEIKGGSEGKSSGSGSESKSTGGSQVQLQQSGPGLVKPSQTLSLTCAISGDSVSSNSAAWNWIRQSPSRGLEWLGRTYYRSKWYNDYAVSVKSRITINPDTSKNQISLQLNSVTPEDTAVYYCAGDRRYGIVGLPFAYWGQGTLVTVSSEPKSSDKTHTCPPCPAPEAAGGPSVFLFPPKPKDTLMISRTPEVTCVVVSVSHEDPEVKFNWYVDGVEVHNAKTKPREEQYNSTYRVVSVLTVLHQDWLNGKEYKCKVSNKALPAPIEKTISKAKGQPREPQVYVLPPSREEMTKNQVSLLCLVKGFYPSDIAVEWESNGQPENNYLTWPPVLDSDGSFFLYSKLTVDKSRWQQGNVFSCSVMHEALHNHYTQKSLSLSPGK
As for B3, the figures for the 50% effective concentration (EC50) in test [4] and in test [5] were 60 nM and 11 nM, respectively.

B4: MHGB687 (antibody, human IgG1, kappa, V domains shown)
VH: QLQLQESGPGLVKPSETLSLMCTVSGGSITSSSYYWGWIRQPPGKGLEWIGNIYYSGTTYYNPSLKSRVTISVDTSKNQFSLKLSSVTAADTAVYYCAAGARDFDSWGQGSLVTVSS
VL: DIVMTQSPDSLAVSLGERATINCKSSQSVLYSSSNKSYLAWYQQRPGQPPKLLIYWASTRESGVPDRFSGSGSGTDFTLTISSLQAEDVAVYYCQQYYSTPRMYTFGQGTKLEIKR
notes: IgG1 mAb
For B4, in test [1], the “Geomean fluorescence signal” value came out at 528000. The same molecule displayed an EC50 in test [3] of 1.86 nM.

B5: MHGB688 (antibody, human IgG1, kappa, V domains shown)
VH: EVQLLESGPGLVKPSQTLSLTCVISGDSVSSNRAAWNWIRQSPSRGLEWLGRTYYRSKWYNDYAVSVKSRITINSDTSKNQISLQLNSVTPEDTAVYYCARVRPGIPFDYWGQGTPVTVSS
VL: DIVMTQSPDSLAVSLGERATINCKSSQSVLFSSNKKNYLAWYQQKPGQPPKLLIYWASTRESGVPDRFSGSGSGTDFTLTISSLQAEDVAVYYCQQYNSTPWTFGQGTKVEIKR
notes: IgG1 mAb
Take B5: in test [1], the “Geomean fluorescence signal” value turned out to be 482000. Also, the figures for the EC50 in test [2] and in test [3] were 1.72 nM and 1.42 nM, respectively.

B6: MHGB668 (antibody, human IgG1, kappa, V domains shown)
VH: QVQLQQSGPGLVKPSQTLSLTCAISGDSVSNNSAAWNWIRQSPSRGLEWLGRTYYRSKWYNDYAVSVKSRITINPDTSKNQFSLQLNSVTPEDTAVYYCARYGSGTLLFDYWGQGTLVTVSS
VL: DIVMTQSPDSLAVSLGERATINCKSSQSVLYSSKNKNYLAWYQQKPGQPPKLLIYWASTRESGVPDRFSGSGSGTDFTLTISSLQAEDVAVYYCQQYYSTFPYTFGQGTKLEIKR
notes: IgG1 mAb
Turning to B6, the “Geomean fluorescence signal” value in test [1] stood at 591000.

B7: MHGB669 (antibody, human IgG1, kappa, V domains shown)
VH: QVQLQQSGPGLVRPSQTLSVTCAISGDSVSSNSASWNWIRQSPSRGLEWLGRTYYRSEWFNDYAVSVKSRVTINPDTSKNQLSLQLNSVIPEDTAVYYCAREARIGVAGKGFDYWGQGTLVTVSS
VL: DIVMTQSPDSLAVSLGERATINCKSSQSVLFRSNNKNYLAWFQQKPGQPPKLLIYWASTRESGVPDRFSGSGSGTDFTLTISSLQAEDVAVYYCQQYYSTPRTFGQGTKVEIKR
notes: IgG1 mAb
In the case of B7, the “Geomean fluorescence signal” value in test [1] is 616000. Also, the half-maximal effective concentration (EC50) is 1.7 nM in test [2] and 1.59 nM in test [3].

B8: MHGB694 (antibody, human IgG1, kappa, V domains shown)
VH: EVQLLESGGGLVQPGGSLRLSCAASGFTFSSYAMHWVRQAPGKGLDWVSGISGSGFSTYYVDSVKGRFTISRDNSKHTLYLQMNSLRAEDTAVYYCAKDNLVAGTVFDYWGQGTLVTVSS
VL: not shown
notes: IgG1 mAb
Turning to B8, in test [1], the “Geomean fluorescence signal” value stood at 473000. Besides, the EC50 worked out at 0.64 nM in test [2] and 0.2 nM in test [3].

The record behind these values is patent US20220033505A1 (Janssen / Centocor, published 2022).
